According to the supplement of paper PMC9112550, “Optimization of the antimicrobial peptide Bac7 by deep mutational scanning” (BMC Biology, 2022):

system: Escherichia coli TOP10; assay: shrunken log2 fold change of peptide-encoding DNA abundance (4.5 h post-induction vs induction); higher = less antimicrobial activity (less host growth inhibition); conditions: time post-induction: 4.5 h; library: site-saturation at positions 5, 18, 19, 20
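Note: peptides expressed intracellularly from a pBAD plasmid library in pooled LB shake-flask culture, induced with 0.3% L-arabinose, DNA abundance read by NGS, three biological replicates, DESeq2 with apeglm shrinkage.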

Sequence	shrunken log2 fold change
RRIRLRPPRLPRPRPRPTPLPRP	0.296
RRIRRRPPRLPRPRPRPAKPPRP	0.125
RRIRRRPPRLPRPRPRPNRMPRP	-0.303
RRIRSRPPRLPRPRPRPDNHPRP	-0.307
RRIRTRPPRLPRPRPRPQYFPRP	-0.395
RRIRRRPPRLPRPRPRPQADPRP	0.312
RRIRSRPPRLPRPRPRPKERPRP	0.265
RRIRYRPPRLPRPRPRPQLYPRP	-0.206
RRIRGRPPRLPRPRPRPVNIPRP	0.145
RRIRQRPPRLPRPRPRPTPSPRP	0.507
RRIRSRPPRLPRPRPRPTQEPRP	0.342
RRIRCRPPRLPRPRPRPITCPRP	-0.159
RRIRNRPPRLPRPRPRPMGQPRP	0.128
RRIRFRPPRLPRPRPRPVYWPRP	-0.195
RRIRTRPPRLPRPRPRPMCMPRP	-0.0542
RRIRCRPPRLPRPRPRPAAFPRP	0.292
RRIRGRPPRLPRPRPRPPNRPRP	0.427
RRIRHRPPRLPRPRPRPKPVPRP	0.239
RRIRRRPPRLPRPRPRPSVRPRP	0.238
RRIRWRPPRLPRPRPRPTRDPRP	0.0468
RRIRGRPPRLPRPRPRPDQPPRP	1.01
RRIRKRPPRLPRPRPRPAQHPRP	0.65
RRIRVRPPRLPRPRPRPNFEPRP	0.178
RRIRVRPPRLPRPRPRPNEVPRP	0.00656
RRIRVRPPRLPRPRPRPHIMPRP	-0.339

Sequence	shrunken log2 fold change
RRIRARPPRLPRPRPRPAVDPRP	0.289
RRIRYRPPRLPRPRPRPHKAPRP	-0.0167
RRIRPRPPRLPRPRPRPHANPRP	-0.0736
RRIRPRPPRLPRPRPRPQTGPRP	0.142
RRIRWRPPRLPRPRPRPIFSPRP	0.0085
RRIRFRPPRLPRPRPRPTLLPRP	-0.0998
RRIRSRPPRLPRPRPRPEAAPRP	0.873
RRIRCRPPRLPRPRPRPSGYPRP	-0.724
RRIRHRPPRLPRPRPRPKRMPRP	0.101
RRIRHRPPRLPRPRPRPSSPPRP	-0.316
RRIRQRPPRLPRPRPRPLFTPRP	-0.426
RRIRPRPPRLPRPRPRPIDTPRP	-0.35
RRIRLRPPRLPRPRPRPDKQPRP	-6.78e-05
RRIRKRPPRLPRPRPRPMMQPRP	0.405
RRIRDRPPRLPRPRPRPARLPRP	0.382
RRIRIRPPRLPRPRPRPEAMPRP	0.124
RRIRFRPPRLPRPRPRPTFEPRP	-0.00113
RRIRDRPPRLPRPRPRPNCWPRP	-0.113
RRIRHRPPRLPRPRPRPKSTPRP	-0.0868
RRIRRRPPRLPRPRPRPIWAPRP	0.0342
RRIRGRPPRLPRPRPRPWMWPRP	0.218
RRIRFRPPRLPRPRPRPTNCPRP	0.0341
RRIRHRPPRLPRPRPRPQWLPRP	0.134
RRIRFRPPRLPRPRPRPNYPPRP	-0.268
RRIRVRPPRLPRPRPRPHIHPRP	-0.545

Sequence	shrunken log2 fold change
RRIRNRPPRLPRPRPRPVPAPRP	0.459
RRIRVRPPRLPRPRPRPPIPPRP	0.242
RRIRHRPPRLPRPRPRPIKVPRP	0.172
RRIRIRPPRLPRPRPRPVLDPRP	0.0135
RRIRQRPPRLPRPRPRPDPNPRP	-0.187
RRIRCRPPRLPRPRPRPWYTPRP	-0.739
RRIRERPPRLPRPRPRPIVDPRP	-0.204
RRIRFRPPRLPRPRPRPMGNPRP	-0.707
RRIRGRPPRLPRPRPRPTGSPRP	0.864
RRIRQRPPRLPRPRPRPMGGPRP	0.0922
RRIRQRPPRLPRPRPRPQQWPRP	0.201
RRIRGRPPRLPRPRPRPPIIPRP	-0.0886
RRIRNRPPRLPRPRPRPYLCPRP	-0.0174
RRIRWRPPRLPRPRPRPGVLPRP	0.0321
RRIRNRPPRLPRPRPRPILCPRP	-0.174
RRIRERPPRLPRPRPRPPPWPRP	0.318
RRIRIRPPRLPRPRPRPWRTPRP	-1.03
RRIRARPPRLPRPRPRPCCFPRP	0.274
RRIRHRPPRLPRPRPRPALAPRP	0.24
RRIRNRPPRLPRPRPRPDGSPRP	0.0143
RRIRNRPPRLPRPRPRPGKEPRP	-0.311
RRIRWRPPRLPRPRPRPNNDPRP	-0.213
RRIRIRPPRLPRPRPRPKQHPRP	-0.307
RRIRIRPPRLPRPRPRPQFMPRP	-0.831
RRIRRRPPRLPRPRPRPPPSPRP	1.21
